Earlier results on one substance are cited in PMC7600996.

A word on the pKd: it is −log10 of the Kd, conventionally taken in molar units.

pKd: −log10 of the molar value.

This series addresses RseA (Escherichia coli) (UniProt P0AFX7).
Chain of UniProt P0AFX7 (P0AFX7 whole entry): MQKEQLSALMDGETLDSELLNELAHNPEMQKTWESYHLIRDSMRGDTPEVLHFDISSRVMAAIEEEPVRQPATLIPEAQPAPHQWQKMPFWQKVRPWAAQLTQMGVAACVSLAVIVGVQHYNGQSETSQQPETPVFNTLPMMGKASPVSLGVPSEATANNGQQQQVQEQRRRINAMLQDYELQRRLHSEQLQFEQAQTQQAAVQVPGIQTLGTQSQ

Regarding RpoE (sigma E) (from UniProt P0AGB6), the pKd is 9.70.
